Target: human IgG (Sigma) (human)
Experiment: ELISA: SPA′ coated at 5 µg/mL, human IgG 25 µg/mL, detection with HRP-labeled protein L, absorbance at 405 nm

human IgG-binding activity per unit mass, relative to protein A manufactured by Repligen: 97%
Substance: SPA′ (part of protein A of Staphylococcus aureus Cowan I strain (JCM2179) except for the signal sequence (S domain) and the cell wall-binding domain (X domain)), produced by Brevibacillus choshinensis HPD31-OK having Spa′-pNK3260 (from UniProt P38507 37-327)
